# From patent US20250326792A1, “A FORMULATION FOR TREATMENT OF PIGMENTARY DISORDERS” (priority 2022, published 2025)
# PHPP = 3-Phenylpyrazolo[3,4-d]pyrimidine (N-terminal cap)
# Assays:
# [1] = Stability of IS103 API, long term (Condition 2, −20±5° C.); type: physicochemical; settings: for Internal change in attributes: Appearance / Internal change in attributes: Clarity of solution / Internal change in attributes: Color / Internal change in attributes: Color of solution / Internal change in attributes: Odor / API calculated on the anhydrous basis / Appearance white to off white amorphous powder / Related substances (By HPLC) Any Max Impurity / Related substances (By HPLC) Total Impurity / Solubility Sparingly soluble in water / Water Content (By Karl Fischer-Titrator): −20±5° C.
# Experimental: The purpose of stability testing is to provide evidence on how the quality of a drug substance or drug product varies with time under the influence of a variety of environmental factors such as temperature, humidity, etc. and to establish a re-test period for the drug substance or a shelf life for the drug product and recommended storage conditions. The study was conducted according to the WHO and schedule-Y guidelines.
# The IS103 API is a lyophilized white fluffy powder, and it was filled at sterile condition in glass injection vial which has airlock-rubber capping. This container closure system is same as or simulates the packaging proposed for storage and distribution.
# The following test attributes have been selected according to the above said guidelines: • appearance; odour; colour; colour of solution (when IS103 API is soluble in solvent); clarity of solution; degradation and assessment of container closure system.
# Testing frequency for long term studies have been designed as per schedule Y. The long-term stability studies have been conducted on 1, 3, 6, 9, 12, 18, 24 and 36 months.
# The studies were conducted under appropriate storage conditions (with appropriate tolerances) that test IS103 API thermal stability and its sensitivity to moisture. The IS103 API is intended for storage for 36 months. Accordingly, long term stability studies were done for 36 months. The details of the storage conditions have been furnished hereunder.
# [2] = system: Tyrosinase; assay: Tyrosinase activity assay (L-DOPA) in NHEM cells; type: cell-based, Human; settings: for % increase in tyrosinase activity compared to control / Tyrosinase activity: TYROSINASE ACTIVITY table
# Experimental: Culture and maintenance of cell lines: B16F10 cells were cultured in RPMI containing 10% fetal bovine serum, 100 units per millilitre (U/mL) penicillin, 0.1 mg/mL streptomycin, and 0.25 microgram per millilitre (μg/mL) amphotericin B at 37 degrees Celsius in a humidified 95% air/5% CO2 incubator. Drug treatment was done 24 hours after seeding. Cells were harvested 48 hours later and melanin content and tyrosinase activity determined in triplicate. NHEM cells were cultured in DMEM containing 10% fetal bovine serum, 100 units per milliliter (U/mL) penicillin, 0.1 mg/mL streptomycin, and 0.25 microgram per millilitre (μg/mL) amphotericin B at 37 degrees Celsius in a humidified 95% air/5% CO2 incubator. Drug treatment was done 24 hours after seeding. Cells were harvested 48 hours later and melanin content and tyrosinase activity determined in triplicate.
# IS103 was dissolved in water for injection or DMSO to prepare stock solution of about 50 mg/ml. The stock solution was used for preparation of subsequent dilutions in solvent to achieve working dilutions for treatment ranging 0.1 μg/ml to 1000 μg/ml.
# Tyrosinase activity was determined using L-DOPA as a substrate. Briefly, B16F10 and NHEM cells were seeded in a 6-well plate (2×10^4 cells/well) and incubated for overnight. The cells were then treated with or without the test compounds for 46 hours and were washed twice with ice cold PBS and extracted by sonication in 100 μl of 0.1M Tris-HCl buffer (pH 7.2) containing 1% Nonidet P-40, 0.01% SDS, 100 μM phenyl methyl sulfonyl fluoride, and 1 μg/ml aprotinin and then centrifuged at 10,000 g for about 10 minutes at 4° C. The supernatants collected were used for enzyme assay and its protein content was estimated by method of Bradford using BSA as standard. Samples of cell extract supernatant were incubated in duplicate for 1 hour at 37° C. in 1 ml of 0.1M sodium phosphate buffer (pH 7.4) containing 0.1% L-DOPA. The absorbance was then monitored at 450 nm and compared with purified mushroom tyrosinase (Sigma). The standard curve was prepared limiting linearity within the range of experimental value.
substance,measurement,setting,value
PHPP-Tyr-Arg-Ser-Arg-Lys-Tyr-Ser-Ser-Trp-Tyr-NH2 ({PHPP}-YRSRKYSSWY-NH2) [IS103],found to be stable for,[1]; long term stability condition (of −20±5° C.),36 months
same,Internal change in attributes: Appearance,[1]; 1st month,No change
same,Internal change in attributes: Clarity of solution,[1]; 1st month,No change
same,Internal change in attributes: Color,[1]; 1st month,No change
same,Internal change in attributes: Color of solution,[1]; 1st month,No change
same,Internal change in attributes: Odor,[1]; 1st month,No change
same,API calculated on the anhydrous basis,[1]; 3 M,99.51%
same,Appearance white to off white amorphous powder,[1]; 3 M,White
same,Related substances (By HPLC) Any Max Impurity,[1]; 3 M,0.22%
same,Related substances (By HPLC) Total Impurity,[1]; 3 M,0.37%
same,Solubility Sparingly soluble in water,[1]; 3 M,Complies
same,Water Content (By Karl Fischer-Titrator),[1]; 3 M,4.06% w/w
same,Internal change in attributes: Appearance,[1]; 3rd month,No change
same,Internal change in attributes: Clarity of solution,[1]; 3rd month,No change
same,Internal change in attributes: Color,[1]; 3rd month,No change
same,Internal change in attributes: Color of solution,[1]; 3rd month,No change
same,Internal change in attributes: Odor,[1]; 3rd month,No change
same,API calculated on the anhydrous basis,[1]; 12 M,99.11%
same,Appearance white to off white amorphous powder,[1]; 12 M,White
same,Related substances (By HPLC) Any Max Impurity,[1]; 12 M,0.36%
same,Related substances (By HPLC) Total Impurity,[1]; 12 M,0.44%
same,Solubility Sparingly soluble in water,[1]; 12 M,Complies
same,Water Content (By Karl Fischer-Titrator),[1]; 12 M,4.45% w/w
same,Internal change in attributes: Appearance,[1]; 12th month,No change
same,Internal change in attributes: Clarity of solution,[1]; 12th month,No change
same,Internal change in attributes: Color,[1]; 12th month,No change
same,Internal change in attributes: Color of solution,[1]; 12th month,No change
same,Internal change in attributes: Odor,[1]; 12th month,No change
same,API calculated on the anhydrous basis,[1]; 18 M,99.03%
same,Appearance white to off white amorphous powder,[1]; 18 M,White
same,Related substances (By HPLC) Any Max Impurity,[1]; 18 M,0.62%
same,Related substances (By HPLC) Total Impurity,[1]; 18 M,0.62%
same,Solubility Sparingly soluble in water,[1]; 18 M,Complies
same,Water Content (By Karl Fischer-Titrator),[1]; 18 M,4.54% w/w
same,Internal change in attributes: Appearance,[1]; 18th month,No change
same,Internal change in attributes: Clarity of solution,[1]; 18th month,No change
same,Internal change in attributes: Color,[1]; 18th month,No change
same,Internal change in attributes: Color of solution,[1]; 18th month,No change
same,Internal change in attributes: Odor,[1]; 18th month,No change
same,API calculated on the anhydrous basis,[1]; 24 M,98.95%
same,Appearance white to off white amorphous powder,[1]; 24 M,White
same,Related substances (By HPLC) Any Max Impurity,[1]; 24 M,0.60%
same,Related substances (By HPLC) Total Impurity,[1]; 24 M,0.82%
same,Solubility Sparingly soluble in water,[1]; 24 M,Complies
same,Water Content (By Karl Fischer-Titrator),[1]; 24 M,4.61% w/w
same,Internal change in attributes: Appearance,[1]; 24th month,No change
same,Internal change in attributes: Clarity of solution,[1]; 24th month,No change
same,Internal change in attributes: Color,[1]; 24th month,No change
same,Internal change in attributes: Color of solution,[1]; 24th month,No change
same,Internal change in attributes: Odor,[1]; 24th month,No change
same,API calculated on the anhydrous basis,[1]; 36 M,98.73%
same,Appearance white to off white amorphous powder,[1]; 36 M,White
same,Related substances (By HPLC) Any Max Impurity,[1]; 36 M,0.84%
same,Related substances (By HPLC) Total Impurity,[1]; 36 M,0.97%
same,Solubility Sparingly soluble in water,[1]; 36 M,Complies
same,Water Content (By Karl Fischer-Titrator),[1]; 36 M,4.56% w/w
same,Internal change in attributes: Appearance,[1]; 36th month,No change
same,Internal change in attributes: Clarity of solution,[1]; 36th month,No change
same,Internal change in attributes: Color,[1]; 36th month,No change
same,Internal change in attributes: Color of solution,[1]; 36th month,No change
same,Internal change in attributes: Odor,[1]; 36th month,No change
same,API calculated on the anhydrous basis,[1]; Initial,99.73%
same,Appearance white to off white amorphous powder,[1]; Initial,White
same,Related substances (By HPLC) Any Max Impurity,[1]; Initial,0.14%
same,Related substances (By HPLC) Total Impurity,[1]; Initial,0.32%
same,Solubility Sparingly soluble in water,[1]; Initial,Complies
same,Water Content (By Karl Fischer-Titrator),[1]; Initial,3.91% w/w
same,increase in Tyrosinase activity when compared to control,"[2]; NHEM CELLS, 250 μg/mL",55.67%
same,effect on tyrosinase activity (FIG. 7),"[2]; NHEM cells, different concentrations, about 48 hours",increased tyrosinase activity
same,% increase in tyrosinase activity compared to control,"[2]; NHEM CELLS, 0.1 μg/mL",−0.67%
same,Tyrosinase activity,"[2]; NHEM CELLS, 0.1 μg/mL",13.7 ± 1.24
same,% increase in tyrosinase activity compared to control,"[2]; NHEM CELLS, 1 μg/mL",3.67%
same,Tyrosinase activity,"[2]; NHEM CELLS, 1 μg/mL",18.0 ± 3.30
same,% increase in tyrosinase activity compared to control,"[2]; NHEM CELLS, 10 μg/mL",10.67%
same,Tyrosinase activity,"[2]; NHEM CELLS, 10 μg/mL",25.0 ± 0.80
same,% increase in tyrosinase activity compared to control,"[2]; NHEM CELLS, 50 μg/mL",22.67%
same,Tyrosinase activity,"[2]; NHEM CELLS, 50 μg/mL",37.0 ± 3.00
same,% increase in tyrosinase activity compared to control,"[2]; NHEM CELLS, 100 μg/mL",45.33%
same,Tyrosinase activity,"[2]; NHEM CELLS, 100 μg/mL",59.7 ± 1.90
same,% increase in tyrosinase activity compared to control,"[2]; NHEM CELLS, 250 μg/mL",55.67%
same,Tyrosinase activity,"[2]; NHEM CELLS, 250 μg/mL",70.0 ± 2.20
same,% increase in tyrosinase activity compared to control,"[2]; NHEM CELLS, 500 μg/mL",61%
same,Tyrosinase activity,"[2]; NHEM CELLS, 500 μg/mL",75.3 ± 2.50
same,% increase in tyrosinase activity compared to control,"[2]; NHEM CELLS, 1000 μg/mL",61%
same,Tyrosinase activity,"[2]; NHEM CELLS, 1000 μg/mL",75.3 ± 2.60
